Data from patent publication US20100093608A1 (Eli Lilly, published 2010).
Like-named read-outs stand apart in the source and are kept apart here. Blank lines part the entries; values can stand above or below the molecule they belong to.

What was measured:
[1] = target: T1, erythropoietin receptor on TF-1 cells (UniProt P19235 25-508, limits assumed)
T1 sequence (looked up): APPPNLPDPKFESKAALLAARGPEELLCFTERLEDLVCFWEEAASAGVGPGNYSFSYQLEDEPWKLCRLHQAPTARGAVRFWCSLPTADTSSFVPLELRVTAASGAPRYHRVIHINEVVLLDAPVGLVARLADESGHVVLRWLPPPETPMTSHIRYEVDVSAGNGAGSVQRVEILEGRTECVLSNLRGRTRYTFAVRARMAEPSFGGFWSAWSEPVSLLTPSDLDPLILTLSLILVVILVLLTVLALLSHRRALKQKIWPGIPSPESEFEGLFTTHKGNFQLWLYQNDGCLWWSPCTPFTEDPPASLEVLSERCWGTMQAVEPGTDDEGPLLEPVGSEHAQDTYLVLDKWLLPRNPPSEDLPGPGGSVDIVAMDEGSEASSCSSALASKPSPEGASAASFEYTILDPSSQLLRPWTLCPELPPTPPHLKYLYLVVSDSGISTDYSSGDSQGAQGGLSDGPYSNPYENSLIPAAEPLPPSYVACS

[2] = target: T1, erythropoietin receptor on TF-1 cells; remark: listed apart in the source
[3] = target: T1, erythropoietin receptor on TF-1 cells; remark: listed apart in the source
[4] = target: T1, erythropoietin receptor on TF-1 cells; experiment: cell-based or functional assay
[5] = target: T1, erythropoietin receptor on TF-1 cells; experiment: cell-based or functional assay; remark: listed apart in the source
[6] = target: T1, erythropoietin receptor on TF-1 cells; experiment: cell-based or functional assay; remark: listed apart in the source
[7] = target: T1, erythropoietin receptor on TF-1 cells; experiment: cell-based or functional assay; remark: listed apart in the source

Relative activity compared to wt fEPO (TF-1 proliferation) [1]: 1.4 X | fold more active than WT (TF-1 proliferation, EC 50 ng/ml) [2]: 1.4 x
Molecule: A128 (ligand)

Relative activity compared to wt fEPO (TF-1 proliferation) [1]: 1.4 X
Molecule: D55 (ligand)

Relative activity compared to wt fEPO (TF-1 proliferation) [1]: 3.1 X
Molecule: E21 (ligand)

Relative activity compared to wt fEPO (TF-1 proliferation) [1]: 1.4 X
Molecule: E31 (ligand)

EC50 (read off the curve) [1]: 3 ng/mL | Relative activity compared to wt fEPO (TF-1 proliferation) [1]: 1.2 X
Molecule: E37 (ligand)

Relative activity compared to wt fEPO (TF-1 proliferation) [1]: 1.2 X | EC50 (TF-1 proliferation, 450nm; stored 5 weeks at +4 degrees C) [3]: 2.1 ng/mL | EC50 (TF-1 proliferation, 450nm; stored 5 weeks at -80 degrees C) [3]: 2.1 ng/mL
Molecule: E72 (ligand)

Relative activity compared to wt fEPO (TF-1 proliferation) [1]: 2.2 X
Molecule: F133 (ligand)

Relative activity compared to wt fEPO (TF-1 proliferation) [1]: 0.7 X
Molecule: K116 (ligand)

Relative activity compared to wt fEPO (TF-1 proliferation) [1]: 2.6 X
Molecule: L130 (ligand)

Relative activity compared to wt fEPO (TF-1 proliferation) [1]: 0.9 X
Molecule: P129 (ligand)

Relative activity compared to wt fEPO (TF-1 proliferation) [1]: 1.6 X
Molecule: R53 (ligand)

Relative activity compared to wt fEPO (TF-1 proliferation) [1]: 0.6 X | fold less active than WT (TF-1 proliferation, EC 50 ng/ml) [2]: 1.6 x
Molecule: R76 (ligand)

Relative activity compared to wt fEPO (TF-1 proliferation) [1]: 0.8 X
Molecule: R131 (ligand)

Relative activity compared to wt fEPO (TF-1 proliferation) [1]: 1.1 X
Molecule: R163 (ligand)

Relative activity compared to wt fEPO (TF-1 proliferation) [1]: 0.9 X
Molecule: S36 (ligand)

Relative activity compared to wt fEPO (TF-1 proliferation) [1]: 1.6 X
Molecule: S120 (ligand)

Relative activity compared to wt fEPO (TF-1 proliferation) [1]: 3.2 X
Molecule: T132 (ligand)

Relative activity compared to wt fEPO (TF-1 proliferation) [1]: 2.6 X
Molecule: Y49 (ligand)

EC50 (read off the curve) [4]: ~3 ng/mL | EC50 (TF-1 proliferation; Starting [fEPO] 250ng/ml; Theoretical Activity 0.5x, Actual Activity 0.6x) [5]: 4.7 ng/mL | EC50 (TF-1 proliferation; Starting [fEPO] 500ng/ml; Theoretical Activity 1x, Actual Activity 1x) [5]: 2.8 ng/mL | EC50 (TF-1 proliferation; Starting [fEPO] 1000ng/ml; Theoretical Activity 2x, Actual Activity 2x) [5]: 1.4 ng/mL | EC50 (read off the curve) [6]: ~2 ng/mL | EC50 (TF-1 proliferation, 450nM) [7]: 3.2 ng/mL
B1: wild type feline erythropoietin (fEPO) (ligand)
chain: APPRLICDSRVLERYILEAREAENVTMGCAEGCSFSENITVPDTKVNFYTWKRMDVGQQAVEVWQGLALLSEAILRGQALLANSSQPSETLQLHVDKAVSSLRSLTSLLRALGAQKEATSLPEATSAAPLRTFTVDTLCKLFRIYSNFLRGKLTLYTGEACRRGDR
